B1: Lysozyme C, P61626 (parent)
chain: MKALIVLGLVLLSVTVQGKVFERCELARTLKRLGMDGYRGISLANWMCLAKWESGYNTRATNYNAGDRSTDYGIFQINSRYWCNDGKTPGAVNACHLSCSALLQDNIADAVACAKRVVRDPQGIRAWVAWRNRCQNRDVRQYVQGCGV

Variants of: B1
Conditions: Homo sapiens; pH 2.51; Thermal; DSC; glycine 0.05 M; reversible: yes; structure 1LZ1; whole UniProt chain shown

Row | Variant | Tm | heat capacity change of unfolding | unfolding enthalpy (calorimetric) | unfolding enthalpy (van 't Hoff)
1 | MKALIVLGLVLLSVTVQGKVFERCELARTLKRLGMDGYRGISLANWMCLAKWESGYNTRATNYNAGDRSTDYGIFQINSRYWCNDGKTPGAVNACHLSCSALLQDNIADAVACAKRVVRDPQGARAWVAWRNRCQNRDVRQYVQGCGV | 57.7 °C | 1.15 kcal/mol/K | 96.4 kcal/mol | 102 kcal/mol

Same assay, conditions: Homo sapiens; pH 2.7; 64.9 °C; Thermal; DSC; glycine 0.05 M; reversible: yes; structure 1LZ1; whole UniProt chain shown

Row | Variant | ddG of mutation (higher = less stable) | heat capacity change of unfolding | unfolding enthalpy (calorimetric) | unfolding enthalpy (van 't Hoff)
2 | MKALIVLGLVLLSVTVQGKVFERCELARTLKRLGMDGYRGISLANWMCLAKWESGYNTRATNYNAGDRSTDYGIFQINSRYWCNDGKTPGAVNACHLSCSALLQDNIADAVACAKRVVRDPQGARAWVAWRNRCQNRDVRQYVQGCGV | 0.93 kcal/mol | 1.34 kcal/mol/K | 106 kcal/mol | 112 kcal/mol
3 | MKALIVLGLVLLSVTVQGKVFERCELARTLKRLGMDGYRGISLANWMCLAKWESGYNTRATNYNAGDRSTDYGIFQINSRYWCNDGKTPGAVNACHLSCSALLQDNAADAVACAKRVVRDPQGIRAWVAWRNRCQNRDVRQYVQGCGV | 2.7 kcal/mol | 1.65 kcal/mol/K | 110 kcal/mol | 113 kcal/mol
4 | MKALIVLGLVLLSVTVQGKVFERCELARTLKRLGMDGYRGISLANWMCLAKWESGYNTRATNYNAGDRSTDYGIFQANSRYWCNDGKTPGAVNACHLSCSALLQDNIADAVACAKRVVRDPQGIRAWVAWRNRCQNRDVRQYVQGCGV | 1.72 kcal/mol | 1.46 kcal/mol/K | 115 kcal/mol | 121 kcal/mol

Same assay, conditions: Homo sapiens; pH 2.7; Thermal; DSC; glycine 0.05 M; reversible: yes; structure 1LZ1; whole UniProt chain shown

Row | Variant | Tm | change of melting temperature, mutant - wild type (higher = more stable) | heat capacity change of unfolding
5 | MKALIVLGLVLLSVTVQGKVFERCELARTLKRLGMDGYRGISLANWMCLAKWESGYNTRATNYNAGDRSTDYGIFQINSRYWCNDGKTPGAVNACHLSCSALLQDNIADAVACAKRVVRDPQGARAWVAWRNRCQNRDVRQYVQGCGV | 61.9 °C | -3 °C | 1.34 kcal/mol/K
6 | MKALIVLGLVLLSVTVQGKVFERCELARTLKRLGMDGYRGISLANWMCLAKWESGYNTRATNYNAGDRSTDYGIFQINSRYWCNDGKTPGAVNACHLSCSALLQDNAADAVACAKRVVRDPQGIRAWVAWRNRCQNRDVRQYVQGCGV | 56.2 °C | -8.7 °C | 1.65 kcal/mol/K
7 | MKALIVLGLVLLSVTVQGKVFERCELARTLKRLGMDGYRGISLANWMCLAKWESGYNTRATNYNAGDRSTDYGIFQANSRYWCNDGKTPGAVNACHLSCSALLQDNIADAVACAKRVVRDPQGIRAWVAWRNRCQNRDVRQYVQGCGV | 59.7 °C | -5.2 °C | 1.46 kcal/mol/K

Same assay, conditions: Homo sapiens; pH 2.8; Thermal; DSC; glycine 0.05 M; reversible: yes; structure 1LZ1; whole UniProt chain shown

Row | Variant | Tm | heat capacity change of unfolding | unfolding enthalpy (calorimetric) | unfolding enthalpy (van 't Hoff)
8 | MKALIVLGLVLLSVTVQGKVFERCELARTLKRLGMDGYRGISLANWMCLAKWESGYNTRATNYNAGDRSTDYGIFQINSRYWCNDGKTPGAVNACHLSCSALLQDNIADAVACAKRVVRDPQGARAWVAWRNRCQNRDVRQYVQGCGV | 64.1 °C | 0.98 kcal/mol/K | 104 kcal/mol | 111 kcal/mol
9 | MKALIVLGLVLLSVTVQGKVFERCELARTLKRLGMDGYRGISLANWMCLAKWESGYNTRATNYNAGDRSTDYGIFQINSRYWCNDGKTPGAVNACHLSCSALLQDNAADAVACAKRVVRDPQGIRAWVAWRNRCQNRDVRQYVQGCGV | 57.7 °C | 1.08 kcal/mol/K | 97.8 kcal/mol | 103 kcal/mol
10 | MKALIVLGLVLLSVTVQGKVFERCELARTLKRLGMDGYRGISLANWMCLAKWESGYNTRATNYNAGDRSTDYGIFQANSRYWCNDGKTPGAVNACHLSCSALLQDNIADAVACAKRVVRDPQGIRAWVAWRNRCQNRDVRQYVQGCGV | 61.5 °C | 1.2 kcal/mol/K | 110 kcal/mol | 115 kcal/mol

Same assay, conditions: Homo sapiens; pH 2.96; Thermal; DSC; glycine 0.05 M; reversible: yes; structure 1LZ1; whole UniProt chain shown

Row | Variant | Tm | heat capacity change of unfolding | unfolding enthalpy (calorimetric) | unfolding enthalpy (van 't Hoff)
11 | MKALIVLGLVLLSVTVQGKVFERCELARTLKRLGMDGYRGISLANWMCLAKWESGYNTRATNYNAGDRSTDYGIFQINSRYWCNDGKTPGAVNACHLSCSALLQDNIADAVACAKRVVRDPQGARAWVAWRNRCQNRDVRQYVQGCGV | 67.4 °C | 1.17 kcal/mol/K | 109 kcal/mol | 114 kcal/mol

Same assay, conditions: Homo sapiens; pH 3.1; Thermal; DSC; glycine 0.05 M; reversible: yes; structure 1LZ1; whole UniProt chain shown

Row | Variant | Tm | heat capacity change of unfolding | unfolding enthalpy (calorimetric) | unfolding enthalpy (van 't Hoff)
12 | MKALIVLGLVLLSVTVQGKVFERCELARTLKRLGMDGYRGISLANWMCLAKWESGYNTRATNYNAGDRSTDYGIFQINSRYWCNDGKTPGAVNACHLSCSALLQDNIADAVACAKRVVRDPQGARAWVAWRNRCQNRDVRQYVQGCGV | 69.7 °C | 1.58 kcal/mol/K | 112 kcal/mol | 119 kcal/mol

Same assay, conditions: Homo sapiens; pH 2.5; Thermal; DSC; glycine 0.05 M; reversible: yes; structure 1LZ1; whole UniProt chain shown

Row | Variant | Tm | heat capacity change of unfolding | unfolding enthalpy (calorimetric) | unfolding enthalpy (van 't Hoff)
13 | MKALIVLGLVLLSVTVQGKVFERCELARTLKRLGMDGYRGISLANWMCLAKWESGYNTRATNYNAGDRSTDYGIFQINSRYWCNDGKTPGAVNACHLSCSALLQDNAADAVACAKRVVRDPQGIRAWVAWRNRCQNRDVRQYVQGCGV | 52.6 °C | 1.72 kcal/mol/K | 89.5 kcal/mol | 95.5 kcal/mol

Same assay, conditions: Homo sapiens; pH 2.66; Thermal; DSC; glycine 0.05 M; reversible: yes; structure 1LZ1; whole UniProt chain shown

Row | Variant | Tm | heat capacity change of unfolding | unfolding enthalpy (calorimetric) | unfolding enthalpy (van 't Hoff)
14 | MKALIVLGLVLLSVTVQGKVFERCELARTLKRLGMDGYRGISLANWMCLAKWESGYNTRATNYNAGDRSTDYGIFQINSRYWCNDGKTPGAVNACHLSCSALLQDNAADAVACAKRVVRDPQGIRAWVAWRNRCQNRDVRQYVQGCGV | 55.4 °C | 1.39 kcal/mol/K | 93.1 kcal/mol | 98.1 kcal/mol
15 | MKALIVLGLVLLSVTVQGKVFERCELARTLKRLGMDGYRGISLANWMCLAKWESGYNTRATNYNAGDRSTDYGIFQANSRYWCNDGKTPGAVNACHLSCSALLQDNIADAVACAKRVVRDPQGIRAWVAWRNRCQNRDVRQYVQGCGV | 59.1 °C | 1.2 kcal/mol/K | 106 kcal/mol | 114 kcal/mol

Same assay, conditions: Homo sapiens; pH 2.95; Thermal; DSC; glycine 0.05 M; reversible: yes; structure 1LZ1; whole UniProt chain shown

Row | Variant | Tm | heat capacity change of unfolding | unfolding enthalpy (calorimetric) | unfolding enthalpy (van 't Hoff)
16 | MKALIVLGLVLLSVTVQGKVFERCELARTLKRLGMDGYRGISLANWMCLAKWESGYNTRATNYNAGDRSTDYGIFQINSRYWCNDGKTPGAVNACHLSCSALLQDNAADAVACAKRVVRDPQGIRAWVAWRNRCQNRDVRQYVQGCGV | 61.1 °C | 1.67 kcal/mol/K | 103 kcal/mol | 108 kcal/mol

Same assay, conditions: Homo sapiens; pH 3.09; Thermal; DSC; glycine 0.05 M; reversible: yes; structure 1LZ1; whole UniProt chain shown

Row | Variant | Tm | heat capacity change of unfolding | unfolding enthalpy (calorimetric) | unfolding enthalpy (van 't Hoff)
17 | MKALIVLGLVLLSVTVQGKVFERCELARTLKRLGMDGYRGISLANWMCLAKWESGYNTRATNYNAGDRSTDYGIFQINSRYWCNDGKTPGAVNACHLSCSALLQDNAADAVACAKRVVRDPQGIRAWVAWRNRCQNRDVRQYVQGCGV | 62.9 °C | 1.51 kcal/mol/K | 106 kcal/mol | 110 kcal/mol

Same assay, conditions: Homo sapiens; pH 2.49; Thermal; DSC; glycine 0.05 M; reversible: yes; structure 1LZ1; whole UniProt chain shown

Row | Variant | Tm | heat capacity change of unfolding | unfolding enthalpy (calorimetric) | unfolding enthalpy (van 't Hoff)
18 | MKALIVLGLVLLSVTVQGKVFERCELARTLKRLGMDGYRGISLANWMCLAKWESGYNTRATNYNAGDRSTDYGIFQANSRYWCNDGKTPGAVNACHLSCSALLQDNIADAVACAKRVVRDPQGIRAWVAWRNRCQNRDVRQYVQGCGV | 55.9 °C | 0.84 kcal/mol/K | 101 kcal/mol | 108 kcal/mol

Same assay, conditions: Homo sapiens; pH 2.98; Thermal; DSC; glycine 0.05 M; reversible: yes; structure 1LZ1; whole UniProt chain shown

Row | Variant | Tm | heat capacity change of unfolding | unfolding enthalpy (calorimetric) | unfolding enthalpy (van 't Hoff)
19 | MKALIVLGLVLLSVTVQGKVFERCELARTLKRLGMDGYRGISLANWMCLAKWESGYNTRATNYNAGDRSTDYGIFQANSRYWCNDGKTPGAVNACHLSCSALLQDNIADAVACAKRVVRDPQGIRAWVAWRNRCQNRDVRQYVQGCGV | 64.5 °C | 1.63 kcal/mol/K | 115 kcal/mol | 120 kcal/mol
